{"source": "patent US10485196", "about": "“Rice plants with altered seed phenotype and quality” (THE INSTITUTE OF GENETICS AND DEVELOPMENTAL BIOLOGY CHINESE …)", "conditions_in_all_cases": "label: biotin 3'", "key": {"OsSPL16 (GW8) [1]": {"biological_target": "T1, OsSPL16 (GW8) (Oryza sativa, UniProt Q6YZE8 Q6YZE8:1-455)", "T1 sequence": "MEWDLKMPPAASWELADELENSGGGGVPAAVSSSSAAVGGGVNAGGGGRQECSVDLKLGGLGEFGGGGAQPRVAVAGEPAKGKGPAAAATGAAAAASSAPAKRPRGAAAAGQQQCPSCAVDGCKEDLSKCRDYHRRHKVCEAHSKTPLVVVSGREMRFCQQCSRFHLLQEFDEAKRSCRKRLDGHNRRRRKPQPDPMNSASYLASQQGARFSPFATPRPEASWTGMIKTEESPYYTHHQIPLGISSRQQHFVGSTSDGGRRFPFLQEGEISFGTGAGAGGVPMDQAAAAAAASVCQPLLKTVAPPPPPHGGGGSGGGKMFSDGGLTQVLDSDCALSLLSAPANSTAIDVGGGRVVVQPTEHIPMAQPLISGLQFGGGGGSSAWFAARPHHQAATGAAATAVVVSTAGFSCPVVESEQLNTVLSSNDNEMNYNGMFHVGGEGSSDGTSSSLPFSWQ", "test": "EMSA; competed by 10-50x cold GTAC probe; probe assignment from Table 9"}, "OsSPL16 (GW8) [2]": {"biological_target": "T1, OsSPL16 (GW8)", "test": "EMSA; mutation of GTAC abolished affinity; probe assignment from Table 9", "description": "FIG. 10 The DNA fragment (F8) containing two […] motifs (a) or two mutated ATAC motifs (b) was incubated with GST-OsSPL16 as indicated. Competition for OsSPL16 binding was performed with 10×, 20×, 30× and 50× cold probes containing the GTAC motif, respectively."}, "OsSPL16 (GW8) [3]": {"biological_target": "T1, OsSPL16 (GW8)", "test": "EMSA; competed by 10-50x cold GTAC probe; probe assignment from Table 9", "from_the_text": "FIG. 4. OsSPL16 negatively regulates GW7 expression. (a) Effect of OsSPL16/GW8 on transcript abundance of GW7 in young panicles. Transcription relative to the level of NIL-GW8^HJX74 plants set to be one. Data shown as mean±s.e.m (n=3). (b) Grain size and shape formed by transgenic NIL-gw8 Basmati plants. Scale bar: 2 mm. (c) ChIP assays. The diagram depicts the putative GW7 promoter and regions of it used for ChIP-PCR analysis of extracts from young panicle of transgenic NIL-gw8 Basmati plants carrying pActin::myc-OsSPL16 construct. Data shown as mean±s.e.m (n=3). (d) EMSA assays. The GTAC motifs-containing DNA fragment (F8 shown in c) of the GW7 promoter was incubated with GST-OsSPL16 as indicated. Competition for OsSPL16 binding was performed with 10×, 20×, 30× and 50× cold probes containing the GTAC motifs, respectively. (e) OsSPL16 represses transcription of the GW7 gene promoter. Relative luciferase activity was monitored in rice protoplasts co-transfected with the different effector and reporter constructs. Mock: co-transfected with reporter constructs and an empty effector construct; negative control: co-transfected with effector construct and an empty reporter construct set to be one. Data shown as mean±s.e.m (n=3). A Student's t-test was used to generate the P values. (f) An 11 bp deletion and 18 bp insertion found in close proximity to the GTAC motifs in the GW7TFA allele. […]", "remark": "listed apart in the source"}}, "data": [{"binder": "GTAC motif probe (T) (dsDNA) DNA 1: TAGTGTACGTACCTCTTAGTGTACGTACCTCTTAGTGTACGTACCTCT DNA 2: AGAGGTACGTACACTAAGAGGTACGTACACTAAGAGGTACGTACACTA", "values": [{"measurement": "binding result", "setting": "OsSPL16 (GW8) [1]", "result": "binds"}]}, {"binder": "mutated GTAC motif probe (Z) (dsDNA) DNA 1: TAGTGTGCGTGCCTCTTAGTGTGCGTGCCTCTTAGTGTGCGTGCCTCT DNA 2: AGAGGCACGCACACTAAGAGGCACGCACACTAAGAGGCACGCACACTA", "values": [{"measurement": "binding result", "setting": "OsSPL16 (GW8) [2]", "result": "no binding"}]}, {"binder": "GW7 promoter F8 fragment probe (HJX1) (dsDNA) DNA 1: CCATTGACACACCATACCACATCTCATCTCACGCGTCCCAAAGAAAGTGATAGTGTACGTACC DNA 2: GGTACGTACACTATCACTTTCTTTGGGACGCGTGAGATGAGATGTGGTATGGTGTGTCAATGG", "values": [{"measurement": "binding result", "setting": "OsSPL16 (GW8) [3]", "result": "binds"}]}]}
